This data set concerns the molecule itself. The data set is described as follows: SDS-PAGE under mildly denaturing conditions.

As usually defined, the stoichiometry N is the number of molecules, sites or subunits per partner or assembly.

B1: gB730 L700G/L711G (domain or fragment)
chain: not shown
Regarding B1, the “stoichiometry N” value was determined as 3.

Source of the values: PMC3655159 (Journal of molecular biology, 2013).
